# Reference: article PMC9482650, “Quantitative fragmentomics allow affinity mapping of interactomes” (Nature Communications, 2022)
# T1: CARD11, Q9BXL7
# T1 sequence (Q9BXL7 662-765, limits assumed, looked up): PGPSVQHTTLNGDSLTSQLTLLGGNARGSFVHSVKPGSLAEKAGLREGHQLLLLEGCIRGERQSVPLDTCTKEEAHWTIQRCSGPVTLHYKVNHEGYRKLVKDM
# T2: APBA2_2, Q99767
# T2 sequence (Q99767 654-744, limits assumed, looked up): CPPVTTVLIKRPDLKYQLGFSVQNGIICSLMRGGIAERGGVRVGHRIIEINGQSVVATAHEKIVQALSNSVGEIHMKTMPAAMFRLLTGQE
# T3: PDZD2_2, O15018
# T3 sequence (O15018 329-429, limits assumed, looked up): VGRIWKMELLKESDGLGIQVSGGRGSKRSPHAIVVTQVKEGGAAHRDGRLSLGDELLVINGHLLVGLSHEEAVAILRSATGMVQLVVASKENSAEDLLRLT
# T4: TIAM2, Q8IVF5
# T4 sequence (Q8IVF5 885-986, limits assumed, looked up): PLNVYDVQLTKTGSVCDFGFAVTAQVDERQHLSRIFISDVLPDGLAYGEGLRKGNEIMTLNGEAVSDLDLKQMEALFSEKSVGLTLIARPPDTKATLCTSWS
# T5: MPDZ_10, O75970
# T5 sequence (O75970 1624-1722, limits assumed, looked up): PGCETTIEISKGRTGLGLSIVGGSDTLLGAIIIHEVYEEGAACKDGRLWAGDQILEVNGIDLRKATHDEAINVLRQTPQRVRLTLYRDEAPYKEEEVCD
# T6: APBA1_1, Q02410
# T6 sequence (Q02410 651-752, limits assumed, looked up): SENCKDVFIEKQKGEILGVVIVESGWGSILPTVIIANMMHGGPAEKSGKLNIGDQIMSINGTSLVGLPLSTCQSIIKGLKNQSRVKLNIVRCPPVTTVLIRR
# T7: LIN7B, Q9HAP6
# T7 sequence (Q9HAP6 88-185, limits assumed, looked up): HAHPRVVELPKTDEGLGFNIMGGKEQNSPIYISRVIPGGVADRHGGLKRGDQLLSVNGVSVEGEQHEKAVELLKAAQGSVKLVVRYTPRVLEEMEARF
# T8: MPP7, Q5T2T1
# T8 sequence (Q5T2T1 134-230, limits assumed, looked up): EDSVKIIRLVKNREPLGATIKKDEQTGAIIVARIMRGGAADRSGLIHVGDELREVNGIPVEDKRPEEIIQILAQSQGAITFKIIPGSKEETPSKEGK
# T9: DLG3_1, Q92796
# T9 sequence (Q92796 125-227, limits assumed, looked up): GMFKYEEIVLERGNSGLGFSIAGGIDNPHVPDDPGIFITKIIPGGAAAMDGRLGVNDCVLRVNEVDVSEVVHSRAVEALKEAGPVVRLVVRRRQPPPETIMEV
# T10: MPP2, Q14168
# T10 sequence (Q14168 180-250, limits assumed, looked up): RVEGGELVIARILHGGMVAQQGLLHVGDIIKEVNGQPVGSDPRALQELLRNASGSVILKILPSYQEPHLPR
# T11: DVL3, Q92997
# T11 sequence (Q92997 244-331, limits assumed, looked up): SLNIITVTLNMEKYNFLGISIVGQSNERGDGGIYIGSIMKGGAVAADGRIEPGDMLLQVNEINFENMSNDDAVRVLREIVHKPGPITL
# T12: GRIP1_2, Q9Y3R0
# T12 sequence (Q9Y3R0 145-248, limits assumed, looked up): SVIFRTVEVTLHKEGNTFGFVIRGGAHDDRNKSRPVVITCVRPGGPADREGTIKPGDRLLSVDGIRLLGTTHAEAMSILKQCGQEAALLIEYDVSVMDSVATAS
# T13: GRIP1_3, Q9Y3R0
# T13 sequence (Q9Y3R0 247-346, limits assumed, looked up): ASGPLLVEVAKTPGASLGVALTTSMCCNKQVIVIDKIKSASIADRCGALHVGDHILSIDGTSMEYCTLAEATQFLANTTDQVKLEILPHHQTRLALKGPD
# Tests used:
# Test in all cases: holdup assay
# Parameters in all cases: key: below the threshold = too weak to quantify, mostly under pKd 3.1 to 4
# CARD11, Q9BXL7 = target: T1, CARD11, Q9BXL7
# APBA2_2, Q99767 = target: T2, APBA2_2, Q99767
# PDZD2_2, O15018 = target: T3, PDZD2_2, O15018
# SCRIB_2, Q14160 = target: SCRIB_2, Q14160
# TIAM2, Q8IVF5 = target: T4, TIAM2, Q8IVF5
# Inadl_9, Q8NI35 = target: Inadl_9, Q8NI35
# MPDZ_10, O75970 = target: T5, MPDZ_10, O75970
# SCRIB_3, Q14160 = target: SCRIB_3, Q14160
# NOS1, P29475 = target: NOS1, P29475
# PARD3_3, Q8TEW0 = target: PARD3_3, Q8TEW0
# FRMPD4, Q14CM0 = target: FRMPD4, Q14CM0
# APBA1_1, Q02410 = target: T6, APBA1_1, Q02410
# LIN7B, Q9HAP6 = target: T7, LIN7B, Q9HAP6
# Inadl_3, Q8NI35 = target: Inadl_3, Q8NI35
# DLG1_1, Q12959 = target: DLG1_1, Q12959
# MPP7, Q5T2T1 = target: T8, MPP7, Q5T2T1
# DLG3_1, Q92796 = target: T9, DLG3_1, Q92796
# PICK1, Q9NRD5 = target: PICK1, Q9NRD5
# MPP2, Q14168 = target: T10, MPP2, Q14168
# DVL3, Q92997 = target: T11, DVL3, Q92997
# FRMPD2_1, Q68DX3 = target: FRMPD2_1, Q68DX3
# GRIP1_2, Q9Y3R0 = target: T12, GRIP1_2, Q9Y3R0
# GRIP1_3, Q9Y3R0 = target: T13, GRIP1_3, Q9Y3R0
# FRMPD2_2, Q68DX3 = target: FRMPD2_2, Q68DX3
# CASK, O14936 = target: CASK, O14936
# [1] = plain residues with an end cap or a label only (N-terminal biotin on a linker: ttds)
# [2] = plain residues with an end cap or a label only (N-terminal biotin on a linker: ahx)
# [3] = plain residues with an end cap or a label only (N-terminal biotin on a linker: ado-ado)
# Sequence of PARD3_3, Q8TEW0 (Q8TEW0 582-685): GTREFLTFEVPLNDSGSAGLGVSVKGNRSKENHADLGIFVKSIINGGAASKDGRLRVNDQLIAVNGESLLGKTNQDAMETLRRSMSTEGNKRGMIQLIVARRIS
# Sequence of Inadl_9, Q8NI35 (Q8NI35 1530-1615): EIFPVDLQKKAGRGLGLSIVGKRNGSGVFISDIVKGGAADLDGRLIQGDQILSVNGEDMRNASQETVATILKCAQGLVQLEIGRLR
# Sequence of NOS1, P29475 (P29475 9-101): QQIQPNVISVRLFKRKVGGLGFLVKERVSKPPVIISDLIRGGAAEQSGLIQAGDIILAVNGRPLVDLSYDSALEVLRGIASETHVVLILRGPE
# Sequence of Inadl_3, Q8NI35 (Q8NI35 359-469): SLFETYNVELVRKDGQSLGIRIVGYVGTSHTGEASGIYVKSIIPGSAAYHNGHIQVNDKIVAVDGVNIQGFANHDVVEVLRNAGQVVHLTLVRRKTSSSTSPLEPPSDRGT
# Sequence of FRMPD4, Q14CM0 (Q14CM0 67-160): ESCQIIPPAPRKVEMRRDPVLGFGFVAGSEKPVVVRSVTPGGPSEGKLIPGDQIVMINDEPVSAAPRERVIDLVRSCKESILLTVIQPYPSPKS
# Sequence of PICK1, Q9NRD5 (Q9NRD5 17-115): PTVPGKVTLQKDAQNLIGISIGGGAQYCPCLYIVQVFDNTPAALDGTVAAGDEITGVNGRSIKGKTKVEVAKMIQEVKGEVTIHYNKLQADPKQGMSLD
# Sequence of SCRIB_2, Q14160 (Q14160 857-960): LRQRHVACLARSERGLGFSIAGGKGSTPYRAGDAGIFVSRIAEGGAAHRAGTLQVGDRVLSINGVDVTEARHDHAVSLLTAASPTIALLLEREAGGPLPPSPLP
# Sequence of FRMPD2_2, Q68DX3 (Q68DX3 944-1038): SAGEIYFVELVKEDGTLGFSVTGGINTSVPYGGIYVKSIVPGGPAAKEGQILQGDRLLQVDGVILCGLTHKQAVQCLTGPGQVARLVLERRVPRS
# Sequence of SCRIB_3, Q14160 (Q14160 999-1103): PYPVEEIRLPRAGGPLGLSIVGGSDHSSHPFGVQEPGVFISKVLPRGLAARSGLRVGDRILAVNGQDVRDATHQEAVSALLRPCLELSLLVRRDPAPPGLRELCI
# Sequence of FRMPD2_1, Q68DX3 (Q68DX3 770-861): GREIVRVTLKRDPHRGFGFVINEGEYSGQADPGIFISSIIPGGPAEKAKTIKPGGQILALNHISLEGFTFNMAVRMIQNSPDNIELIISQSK
# Sequence of CASK, O14936 (O14936 487-570): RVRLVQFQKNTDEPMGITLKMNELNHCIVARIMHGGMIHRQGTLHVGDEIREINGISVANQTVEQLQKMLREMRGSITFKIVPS
binder,measurement,setting,value
"ERKLSSESQV [LRP4, O75096]",pKd,"CARD11, Q9BXL7; [1]",below the threshold
same,pKd,"APBA2_2, Q99767; [1]",below the threshold
same,pKd,"PDZD2_2, O15018; [1]",4.39
same,pKd,"SCRIB_2, Q14160; [1]",3.66
same,pKd,"TIAM2, Q8IVF5; [1]",below the threshold
same,pKd,"Inadl_9, Q8NI35; [1]",below the threshold
same,pKd,"MPDZ_10, O75970; [1]",below the threshold
same,pKd,"SCRIB_3, Q14160; [1]",3.93
same,pKd,"NOS1, P29475; [1]",3.81
same,pKd,"PARD3_3, Q8TEW0; [1]",below the threshold
same,pKd,"FRMPD4, Q14CM0; [1]",below the threshold
same,pKd,"APBA1_1, Q02410; [1]",below the threshold
same,pKd,"LIN7B, Q9HAP6; [1]",below the threshold
same,pKd,"Inadl_3, Q8NI35; [1]",below the threshold
same,pKd,"DLG1_1, Q12959; [1]",3.82
same,pKd,"MPP7, Q5T2T1; [1]",below the threshold
same,pKd,"DLG3_1, Q92796; [1]",3.81
same,pKd,"PICK1, Q9NRD5; [1]",below the threshold
same,pKd,"MPP2, Q14168; [1]",below the threshold
same,pKd,"DVL3, Q92997; [1]",below the threshold
same,pKd,"FRMPD2_1, Q68DX3; [1]",below the threshold
same,pKd,"GRIP1_2, Q9Y3R0; [1]",3.7
same,pKd,"GRIP1_3, Q9Y3R0; [1]",below the threshold
same,pKd,"FRMPD2_2, Q68DX3; [1]",3.48
same,pKd,"CASK, O14936; [1]",below the threshold
"SRPQRTQTQV [HPV67-E6, A4U7F2]",pKd,"CARD11, Q9BXL7; [1]",below the threshold
same,pKd,"APBA2_2, Q99767; [1]",below the threshold
same,pKd,"PDZD2_2, O15018; [1]",3.77
same,pKd,"SCRIB_2, Q14160; [1]",3.4
same,pKd,"TIAM2, Q8IVF5; [1]",below the threshold
same,pKd,"Inadl_9, Q8NI35; [1]",below the threshold
same,pKd,"MPDZ_10, O75970; [1]",3.4
same,pKd,"SCRIB_3, Q14160; [1]",3.93
same,pKd,"NOS1, P29475; [1]",3.81
same,pKd,"PARD3_3, Q8TEW0; [1]",below the threshold
same,pKd,"FRMPD4, Q14CM0; [1]",below the threshold
same,pKd,"APBA1_1, Q02410; [1]",below the threshold
same,pKd,"LIN7B, Q9HAP6; [1]",below the threshold
same,pKd,"Inadl_3, Q8NI35; [1]",below the threshold
same,pKd,"DLG1_1, Q12959; [1]",4.52
same,pKd,"MPP7, Q5T2T1; [1]",below the threshold
same,pKd,"DLG3_1, Q92796; [1]",3.89
same,pKd,"PICK1, Q9NRD5; [1]",below the threshold
same,pKd,"MPP2, Q14168; [1]",below the threshold
same,pKd,"DVL3, Q92997; [1]",below the threshold
same,pKd,"FRMPD2_1, Q68DX3; [1]",3.79
same,pKd,"GRIP1_2, Q9Y3R0; [1]",below the threshold
same,pKd,"GRIP1_3, Q9Y3R0; [1]",below the threshold
same,pKd,"FRMPD2_2, Q68DX3; [1]",3.53
same,pKd,"CASK, O14936; [1]",below the threshold
"HTHSYIETHV [CNKSR2, Q8WXI2]",pKd,"CARD11, Q9BXL7; [2]",below the threshold
same,pKd,"APBA2_2, Q99767; [2]",below the threshold
same,pKd,"PDZD2_2, O15018; [2]",4.24
same,pKd,"SCRIB_2, Q14160; [2]",5.31
same,pKd,"TIAM2, Q8IVF5; [2]",3.81
same,pKd,"Inadl_9, Q8NI35; [2]",3.64
same,pKd,"MPDZ_10, O75970; [2]",below the threshold
same,pKd,"SCRIB_3, Q14160; [2]",5.11
same,pKd,"NOS1, P29475; [2]",3.85
same,pKd,"PARD3_3, Q8TEW0; [2]",below the threshold
same,pKd,"FRMPD4, Q14CM0; [2]",below the threshold
same,pKd,"APBA1_1, Q02410; [2]",below the threshold
same,pKd,"LIN7B, Q9HAP6; [2]",below the threshold
same,pKd,"Inadl_3, Q8NI35; [2]",3.66
same,pKd,"DLG1_1, Q12959; [2]",4.62
same,pKd,"MPP7, Q5T2T1; [2]",below the threshold
same,pKd,"DLG3_1, Q92796; [2]",4.08
same,pKd,"PICK1, Q9NRD5; [2]",below the threshold
same,pKd,"MPP2, Q14168; [2]",below the threshold
same,pKd,"DVL3, Q92997; [2]",below the threshold
same,pKd,"FRMPD2_1, Q68DX3; [2]",below the threshold
same,pKd,"GRIP1_2, Q9Y3R0; [2]",below the threshold
same,pKd,"GRIP1_3, Q9Y3R0; [2]",below the threshold
same,pKd,"FRMPD2_2, Q68DX3; [2]",4.83
same,pKd,"CASK, O14936; [2]",below the threshold
"KRPEMTSSSV [MUC3B, MUC3A, Q02505;Q9H195]",pKd,"PDZD2_2, O15018; [3]",5.11
same,pKd,"NOS1, P29475; [3]",below the threshold
same,pKd,"DLG3_1, Q92796; [3]",below the threshold
same,pKd,"PICK1, Q9NRD5; [3]",2.09
same,pKd,"FRMPD2_1, Q68DX3; [3]",below the threshold
same,pKd,"FRMPD2_2, Q68DX3; [3]",below the threshold
same,pKd,"CASK, O14936; [3]",below the threshold
